From PMC3185416
Where two headings read alike, the source gives them in different places.

Columns and labels:
Smad4 MH1 [1] = target: T1, Smad4 MH1 (mouse, UniProt P97471 1-140); assay: EMSA
Smad4 MH1 [2] = target: T1, Smad4 MH1; assay: EMSA; remark: listed apart in the source
Smad4 MH1dN8 [3] = target: T2, Smad4 MH1dN8 (mouse, UniProt P97471 9-140); assay: crystal structure
Smad4 MH1;Smad3 MH1 = Smad4 MH1;Smad3 MH1 (mouse;mouse?, UniProt P97471;Q8BUN5 1-140;1-143, |); assay: EMSA
Smad4 MH1;Smad1 MH1 = Smad4 MH1;Smad1 MH1 (mouse;mouse?, UniProt P97471;P70340 1-140;1-136, |); assay: EMSA
Smad4 MH1;Smad2dE3 MH1 = Smad4 MH1;Smad2dE3 MH1 (mouse;mouse?, UniProt P97471;Q62432-2 1-140;1-153, |del79-108); assay: EMSA
Smad3 MH1 99HSHH102/HKN = Smad3 MH1 99HSHH102/HKN (UniProt Q8BUN5 1-97+=HKN+102-143, internal_change); assay: EMSA
Smad3 MH1 K33R = Smad3 MH1 K33R (UniProt Q8BUN5 1-143, K33R); assay: EMSA
Smad3 MH1 S100K = Smad3 MH1 S100K (UniProt Q8BUN5 1-143, S99K); assay: EMSA
Smad2dE3 MH1 = Smad2dE3 MH1 (UniProt Q62432-2 1-153, del79-108); assay: EMSA
Smad3 MH1 = Smad3 MH1 (UniProt Q8BUN5 1-143); assay: EMSA
Smad4 MH1 [4] = target: T1, Smad4 MH1; assay: EMSA; remark: listed apart in the source
Smad4 MH1 105HKN107/HSHH = Smad4 MH1 105HKN107/HSHH (mouse, UniProt P97471 1-104+=HSHH+108-140, internal_change); assay: EMSA
Smad4 MH1 AG/SH = Smad4 MH1 AG/SH (mouse, UniProt P97471 1-140, A85S;G86H); assay: EMSA
Smad4 MH1 R38K = Smad4 MH1 R38K (mouse, UniProt P97471 1-140, R38K); assay: EMSA
Smad4 MH1 K106S = Smad4 MH1 K106S (mouse, UniProt P97471 1-140, K106S); assay: EMSA
Smad4 MH1dN12 = Smad4 MH1dN12 (mouse, UniProt P97471 13-140); assay: EMSA
Smad4 MH1dN3 = Smad4 MH1dN3 (mouse, UniProt P97471 4-140); assay: EMSA
Smad4 MH1dN10 = Smad4 MH1dN10 (mouse, UniProt P97471 11-140); assay: EMSA
Smad4 MH1dN8 [5] = target: T2, Smad4 MH1dN8; assay: EMSA
Smad1 MH1 = Smad1 MH1 (UniProt P70340 1-136); assay: EMSA
Sequence of Smad1 MH1 (P70340 1-136): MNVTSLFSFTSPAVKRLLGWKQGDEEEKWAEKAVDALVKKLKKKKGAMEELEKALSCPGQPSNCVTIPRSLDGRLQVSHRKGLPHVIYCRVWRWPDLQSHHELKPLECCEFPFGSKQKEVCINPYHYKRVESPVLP

Measured: binding result

B1: OPN1 promoter element (dsDNA)
DNA 1: TGGAGACTGTCTGGA
DNA 2: TCCAGACAGTCTCCA
binds: Smad4 MH1 [1]

B2: palindromic SBE 16-bp (crystal) (dsDNA)
DNA 1: TGCAGTCTAGACTGCA
DNA 2: TGCAGTCTAGACTGCA
binds: Smad4 MH1 [2] | Smad4 MH1dN8 [3]

B3: palindromic SBE (EMSA) (dsDNA)
DNA 1: TCAGTCTAGACATAC
DNA 2: GTATGTCTAGACTGA
not listed: Smad4 MH1 [1] | Smad4 MH1 [2] | Smad4 MH1dN8 [3]
binds: all other assays above

B4: JunB promoter element (dsDNA)
DNA 1: GACAGTCTGTCTGCC
DNA 2: GGCAGACAGACTGTC
binds: Smad4 MH1 [1]
